Laboratory results reported in patent US20050059597A1.

Biological target: PSD-95, endogenous, in cultured cortical neurons (mouse) (UniProt Q62108)
Experiment: cell-based or functional assay

PSD-95, endogenous, in cultured cortical neurons (mouse), sequence (Q62108 whole entry): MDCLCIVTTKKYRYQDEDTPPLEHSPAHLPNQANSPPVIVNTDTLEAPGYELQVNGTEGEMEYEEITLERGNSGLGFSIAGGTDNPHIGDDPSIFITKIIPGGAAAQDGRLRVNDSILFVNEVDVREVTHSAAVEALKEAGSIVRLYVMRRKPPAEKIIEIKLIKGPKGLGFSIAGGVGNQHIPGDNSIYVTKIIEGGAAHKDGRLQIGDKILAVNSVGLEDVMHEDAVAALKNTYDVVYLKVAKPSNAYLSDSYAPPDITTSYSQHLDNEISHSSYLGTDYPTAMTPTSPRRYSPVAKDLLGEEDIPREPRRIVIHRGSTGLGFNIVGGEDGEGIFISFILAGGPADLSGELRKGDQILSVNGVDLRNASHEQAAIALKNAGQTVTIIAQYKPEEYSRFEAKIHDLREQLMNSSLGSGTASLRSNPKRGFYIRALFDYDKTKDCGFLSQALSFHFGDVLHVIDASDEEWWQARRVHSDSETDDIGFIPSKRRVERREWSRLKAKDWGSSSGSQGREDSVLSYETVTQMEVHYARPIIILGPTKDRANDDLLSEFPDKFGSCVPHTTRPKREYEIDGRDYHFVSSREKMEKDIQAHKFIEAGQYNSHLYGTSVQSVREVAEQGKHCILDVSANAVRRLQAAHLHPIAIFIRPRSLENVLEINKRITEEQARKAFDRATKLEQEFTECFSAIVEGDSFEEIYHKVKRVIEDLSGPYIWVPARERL

Q: Tat-NR2B9c (peptide) was tested. Which NMDA-evoked cGMP production in cortical cultures (surrogate of NO production by nNOS) did it give?
A: Its NMDA-evoked cGMP production in cortical cultures (surrogate of NO production by nNOS) is 39.5%.
